Results taken from article PMC5020499, “Crystal structures of archaeal 2-oxoacid:ferredoxin oxidoreductases from Sulfolobus tokodaii” (Scientific Reports, 2016).

Experiments:
[1] = substrate: O=C(O)CCC(=O)C(=O)O; experiment: purified protein; type: biochemical, Sulfurisphaera tokodaii; conditions: 0.25 mM CoA, 2 mM methylviologen, 50 mM Tris-HCl pH 8.5, 80 °C
[2] = substrate: CC(=O)C(=O)O; experiment: purified protein; type: biochemical, Sulfurisphaera tokodaii; conditions: 0.25 mM CoA, 2 mM methylviologen, 50 mM Tris-HCl pH 8.5, 80 °C

Protein | Km [1] | Vmax [1] | Km [2] | Vmax [2]
StOFOR2 (Sulfurisphaera tokodaii str. 7) (protein, recombinant in E. coli C43(DE3), genes from S. tokodaii genomic DNA in pOFORAB (pET-17b based), untagged; (ab)2 heterotetramer with TPP, Mg2+, [4Fe-4S]) chain 1: MTRIVWMIGGAQGLGVDTSANIFGNAVAKAGYYLFGNREYYSNIKGRHSYFEVVISEKPIRSLSSYVNILASFDAETVFQHFTETKEYLIYNVEYENTTVDLVKSMEPEMAEQVKEALSKERLGFTIKDVLEYLKRRGVKVIGFNYTELIKKIADTFKVPMSVVERAKNMIAVGASYGLLGLKFDYLKDAISSTFKNELFIKFNTMAAELGYNSVPNVYKLQEYKIEKQRIQVDGNTISAMGKLAGGLRFQSYYPITPASDESVYIEANQNLDMIVEGNELRKGGVVVVQAEDELAAINMAVGAALTGVRSATATSGPGFSLMSEGISWAGMNEVPVVITYYMRGAPATGLPTRSGQADLKFALNVGHGEFPRIVIASGDHVEIFWDAIWALNLAEKYQTPVIHIIEKTLANAYSVFEEELITNRPYVIERGKIVKPTSDYFNRFEVTEDGISPRVFLGQASIFYTGDEHNEEGHITENSINRMKMYEKRNKKLETADKEIPEEQRVNIVGDADIVLLTWGSPKGAILDAMEELSKDGIKTMMVQVKMFNPYPKNLMKKILSGKSKIIAVENNYNAQGAEVLAEKTGIFATNYILKWTGRPITREEVIEGIKKILERDEKRVVLYGGA chain 2: MVERKPVFVDWCPGCGDFGILRAEEMAIRELGINPKSVVIVSGIGCSGKIPHFMNLPISGVHTLHGRSIAFATGIKLSNPSLEVIVNVGDGDGLGIGMGHFVHLGRRNIDIAVLVHNNGVYGLTKGQASPTLHRGEKTKSLPKPNIMDAVNPLAVALAAGYTFVARGYAYDVMHLKELIKKAILHKGSALVDILQPCPTYNDINTKEWYDKRVYKLDNVPGWDPVVRKEEEAQKKFEQAIMKSYEWGEKIPIGIFYQNELVPTFEDRLTSNIPNYREYYPAKQQIEINGISTTKIDELIKAKRI | 15000 ± 2000 µM | 1.4 µmol/min/mg | 1600 ± 300 µM | 7 µmol/min/mg
StOFOR1 (Sulfurisphaera tokodaii str. 7) (protein, recombinant in E. coli C43(DE3), pET-17b-based pOFORAB, untagged; 70 kDa alpha and 34 kDa beta subunits; (ab)2 heterotetramer with TPP, Mg2+, [4Fe-4S]) chain 1: MRLSWVIGGAQGTGIDTAANIFGNAVASAGYYIYGNREYYSNIKGRHSYFSLTISDKRVRSNTQKIDILVSFDAETVFQHFYDVKDILIYNKAVETTKIDAVQSMEPELAERIKDFLTKQGYETTVKGALEYASKNNVTLIPVNYDEIAKKVADEMKVPLSVTERVKNIVGITISYKLLGLDVNYLIEAINSTFKQDLYRKMNELAVKDSYDIVESRYNLKPSSKERRRFWLDGNTAVAIGKIYGGVRFQSYYPITPASDESVYIEAHQDVLMEDPITGDKKKGTIVVVQAEDELAAINMAIGAALTGVRAATATSGPGFSLMVEGLGWAGMNEVPVVITYYIRGGPSTGLPTRTAQSDLIFPIFAGHGEFPKIVLASGDHAEAFKDAIWALNLAEKYQTPVIHLVEKTLANSYSTIPYEELELDKLKAERGKIVESGDISYKRFKFTEDGISPRAFLGKATMYYTGDEHNEEGHISEDVVNRTMMYEKRMKKLEVADKEIPEESRVKIYGDLNSRNLIITWGSPTGVLRDILEESNFDFTLLQIRMFSPFPKNLVSKLMEGRDKIITVEGNYLAQTSLLVKMYTGKDVTNSILKWNGRPFLRDELEEALIKVIKDGEKRVVLNGGI chain 2: MAAFKPQWNDWCPGCGNFGILNAEQQAIVELGVDTKNVVVVSGIGCSGKIPHFFRTPISGVHTLHGRAIAFATGIKLSNPDLVVIVNGGDGDLLGIGAGHFVAAGRRNVDMVVILHDNGVYGLTKGQASPTLKRGEKPKSLPRPNINDAVNPIALAISSGYTFVARGYAYDVKHLKELIKSAIKHKGLALIDVLQPCPTYNDINTKEWYDKRIYKLDTLPDWDPVVKKPEEVNEKIKRAIDKSLEWGDRIPIGIFYQNELVPSYEERIKANSPAYLDYTPAKQLIEKEGKLTTIIDPLLKEREVD | 2100 ± 300 µM | 2.7 µmol/min/mg | 320 ± 80 µM | 7.5 µmol/min/mg
StOFOR1 (Sulfurisphaera tokodaii str. 7; Q96Y66:T349L) (protein, recombinant in E. coli C43(DE3), pET-17b-based pOFORAB, untagged; 70 kDa alpha and 34 kDa beta subunits; (ab)2 heterotetramer with TPP, Mg2+, [4Fe-4S]) chain 1: MRLSWVIGGAQGTGIDTAANIFGNAVASAGYYIYGNREYYSNIKGRHSYFSLTISDKRVRSNTQKIDILVSFDAETVFQHFYDVKDILIYNKAVETTKIDAVQSMEPELAERIKDFLTKQGYETTVKGALEYASKNNVTLIPVNYDEIAKKVADEMKVPLSVTERVKNIVGITISYKLLGLDVNYLIEAINSTFKQDLYRKMNELAVKDSYDIVESRYNLKPSSKERRRFWLDGNTAVAIGKIYGGVRFQSYYPITPASDESVYIEAHQDVLMEDPITGDKKKGTIVVVQAEDELAAINMAIGAALTGVRAATATSGPGFSLMVEGLGWAGMNEVPVVITYYIRGGPSLGLPTRTAQSDLIFPIFAGHGEFPKIVLASGDHAEAFKDAIWALNLAEKYQTPVIHLVEKTLANSYSTIPYEELELDKLKAERGKIVESGDISYKRFKFTEDGISPRAFLGKATMYYTGDEHNEEGHISEDVVNRTMMYEKRMKKLEVADKEIPEESRVKIYGDLNSRNLIITWGSPTGVLRDILEESNFDFTLLQIRMFSPFPKNLVSKLMEGRDKIITVEGNYLAQTSLLVKMYTGKDVTNSILKWNGRPFLRDELEEALIKVIKDGEKRVVLNGGI chain 2: MAAFKPQWNDWCPGCGNFGILNAEQQAIVELGVDTKNVVVVSGIGCSGKIPHFFRTPISGVHTLHGRAIAFATGIKLSNPDLVVIVNGGDGDLLGIGAGHFVAAGRRNVDMVVILHDNGVYGLTKGQASPTLKRGEKPKSLPRPNINDAVNPIALAISSGYTFVARGYAYDVKHLKELIKSAIKHKGLALIDVLQPCPTYNDINTKEWYDKRIYKLDTLPDWDPVVKKPEEVNEKIKRAIDKSLEWGDRIPIGIFYQNELVPSYEERIKANSPAYLDYTPAKQLIEKEGKLTTIIDPLLKEREVD | 2300 ± 300 µM | 2 µmol/min/mg | 510 ± 110 µM | 3.2 µmol/min/mg
StOFOR1 (Sulfurisphaera tokodaii str. 7; Q96Y68:K49I) (protein, recombinant in E. coli C43(DE3), pET-17b-based pOFORAB, untagged; 70 kDa alpha and 34 kDa beta subunits; (ab)2 heterotetramer with TPP, Mg2+, [4Fe-4S]) chain 1: MRLSWVIGGAQGTGIDTAANIFGNAVASAGYYIYGNREYYSNIKGRHSYFSLTISDKRVRSNTQKIDILVSFDAETVFQHFYDVKDILIYNKAVETTKIDAVQSMEPELAERIKDFLTKQGYETTVKGALEYASKNNVTLIPVNYDEIAKKVADEMKVPLSVTERVKNIVGITISYKLLGLDVNYLIEAINSTFKQDLYRKMNELAVKDSYDIVESRYNLKPSSKERRRFWLDGNTAVAIGKIYGGVRFQSYYPITPASDESVYIEAHQDVLMEDPITGDKKKGTIVVVQAEDELAAINMAIGAALTGVRAATATSGPGFSLMVEGLGWAGMNEVPVVITYYIRGGPSTGLPTRTAQSDLIFPIFAGHGEFPKIVLASGDHAEAFKDAIWALNLAEKYQTPVIHLVEKTLANSYSTIPYEELELDKLKAERGKIVESGDISYKRFKFTEDGISPRAFLGKATMYYTGDEHNEEGHISEDVVNRTMMYEKRMKKLEVADKEIPEESRVKIYGDLNSRNLIITWGSPTGVLRDILEESNFDFTLLQIRMFSPFPKNLVSKLMEGRDKIITVEGNYLAQTSLLVKMYTGKDVTNSILKWNGRPFLRDELEEALIKVIKDGEKRVVLNGGI chain 2: MAAFKPQWNDWCPGCGNFGILNAEQQAIVELGVDTKNVVVVSGIGCSGIIPHFFRTPISGVHTLHGRAIAFATGIKLSNPDLVVIVNGGDGDLLGIGAGHFVAAGRRNVDMVVILHDNGVYGLTKGQASPTLKRGEKPKSLPRPNINDAVNPIALAISSGYTFVARGYAYDVKHLKELIKSAIKHKGLALIDVLQPCPTYNDINTKEWYDKRIYKLDTLPDWDPVVKKPEEVNEKIKRAIDKSLEWGDRIPIGIFYQNELVPSYEERIKANSPAYLDYTPAKQLIEKEGKLTTIIDPLLKEREVD |  |  | 910 ± 120 µM | 2.1 µmol/min/mg
StOFOR1 (Sulfurisphaera tokodaii str. 7; Q96Y66:S41A) (protein, recombinant in E. coli C43(DE3), pET-17b-based pOFORAB, untagged; 70 kDa alpha and 34 kDa beta subunits; (ab)2 heterotetramer with TPP, Mg2+, [4Fe-4S]) chain 1: MRLSWVIGGAQGTGIDTAANIFGNAVASAGYYIYGNREYYANIKGRHSYFSLTISDKRVRSNTQKIDILVSFDAETVFQHFYDVKDILIYNKAVETTKIDAVQSMEPELAERIKDFLTKQGYETTVKGALEYASKNNVTLIPVNYDEIAKKVADEMKVPLSVTERVKNIVGITISYKLLGLDVNYLIEAINSTFKQDLYRKMNELAVKDSYDIVESRYNLKPSSKERRRFWLDGNTAVAIGKIYGGVRFQSYYPITPASDESVYIEAHQDVLMEDPITGDKKKGTIVVVQAEDELAAINMAIGAALTGVRAATATSGPGFSLMVEGLGWAGMNEVPVVITYYIRGGPSTGLPTRTAQSDLIFPIFAGHGEFPKIVLASGDHAEAFKDAIWALNLAEKYQTPVIHLVEKTLANSYSTIPYEELELDKLKAERGKIVESGDISYKRFKFTEDGISPRAFLGKATMYYTGDEHNEEGHISEDVVNRTMMYEKRMKKLEVADKEIPEESRVKIYGDLNSRNLIITWGSPTGVLRDILEESNFDFTLLQIRMFSPFPKNLVSKLMEGRDKIITVEGNYLAQTSLLVKMYTGKDVTNSILKWNGRPFLRDELEEALIKVIKDGEKRVVLNGGI chain 2: MAAFKPQWNDWCPGCGNFGILNAEQQAIVELGVDTKNVVVVSGIGCSGKIPHFFRTPISGVHTLHGRAIAFATGIKLSNPDLVVIVNGGDGDLLGIGAGHFVAAGRRNVDMVVILHDNGVYGLTKGQASPTLKRGEKPKSLPRPNINDAVNPIALAISSGYTFVARGYAYDVKHLKELIKSAIKHKGLALIDVLQPCPTYNDINTKEWYDKRIYKLDTLPDWDPVVKKPEEVNEKIKRAIDKSLEWGDRIPIGIFYQNELVPSYEERIKANSPAYLDYTPAKQLIEKEGKLTTIIDPLLKEREVD | 3200 ± 400 µM | 1.1 µmol/min/mg | 490 ± 90 µM | 2.2 µmol/min/mg
